Test results reported in article PMC12436594, “Probing three-dimensional cyclooctatetraene for nucleobase modification in aptamer selection”.

Target: PvLDH (lactate dehydrogenase) (Plasmodium vivax, UniProt Q4PRK9 1-316)
Assay: flow cytometry (Ni-NTA beads)
Settings: protein: recombinant; tags: His6; chain copies: 4

B1: N15 unmodified (ssDNA)
DNA: CACTCACGTCAGTGACATGCAGGTCCTCTCGCCCCCAGTGACTTGCGTGGTCAGAAATTTCGCACCAC
  Kd: ~208 nM
